Drawing on the supplement of paper PMC10567573, this text covers protein stability index for 94 variants.

The labels stand for the following.
B1: EIF5 (parent)
chain: KQTIGNSCKACGYRGMLDTHHKLC
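Further: lentivirally expressed fusions sorted by FACS into six bins by GFP to DsRed ratio, PSI derived from sequencing read proportions per bin multiplied by bin number.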

The variants in the series derive from B1. In words: protein stability index of a GFP-peptide fusion (GPS, HEK-293T) (PSI 1-6); higher = more stable. The following applies: c terminus: a fixed tail appended.
For the variant KQLIGNSCKACGYRGMLDTHHKLC, the protein stability index stood at 3.23. For KQNIGNSCKACGYRGMLDTHHKLC the value was 3.31; for KQKIGNSCKACGYRGMLDTHHKLC, 3.4. For KQGIGNSCKACGYRGMLDTHHKLC the value was 3.15. For the variant KQTIGNSCKACGYRGYLDTHHKLC, the protein stability index came out at 2.98. As for KQTIGNSCKACGYRGKLDTHHKLC, the protein stability index came out at 4.35.

Turning to KQTIGNSCKACGYRGRLDTHHKLC, the protein stability index came to 3.29. As for KQTIGNSCKACGYRGGLDTHHKLC, the figure is 3.91; as for KQTIGNSCKACGYRGQLDTHHKLC, 3.9; as for KQTIGNSCKACGYRGTLDTHHKLC, 4.14. As for KQTIGNSCKACGYRGSLDTHHKLC, the figure is 3.8; as for KQTIGNSCKACGYRGALDTHHKLC, 3.94. Consider KQTIGNSCKACGYRGNLDTHHKLC, for which the protein stability index was 3.63.

With KQTIGNSCKACGYRGLLDTHHKLC, the protein stability index was 3.51. As for KQTIGNSCKACGYRGMLDTNHKLC, the figure is 2.92; as for KQTIGNSCKACGYRGMLDTQHKLC, 2.5; as for KQTIGNSCKACGYRGMLDTPHKLC, 2.47. For KQTIGNSCKACGYRGMLDTTHKLC the value was 1.98; for KQTIGNSCKACGYRGMLDTAHKLC, 2.24.

For the variant KQTIGNSCKACGYRGMLDTVHKLC, the protein stability index amounted to 2.15.

Take KQTIGNSCLACGYRGMLDTHHKLC: the protein stability index was 2.6. As for KQTIGNSCIACGYRGMLDTHHKLC, the figure is 2.97.

For KQTIGNSCGACGYRGMLDTHHKLC, the protein stability index worked out at 2.82. KQTIGNSCTACGYRGMLDTHHKLC: the protein stability index turned out to be 3.3. As for KQTIGNSCQACGYRGMLDTHHKLC, the figure is 3.11; as for KQTIGNSCHACGYRGMLDTHHKLC, 3.08. As for KQTIGNSCNACGYRGMLDTHHKLC, the protein stability index was found to be 2.79. As for KQTIGNSCFACGYRGMLDTHHKLC, the figure is 2.16. For KQTIGNSCKACGYRGMLWTHHKLC, the protein stability index was found to be 1.99.

For KQTIGNSCKACGYRGMLKTHHKLC, the protein stability index came to 2.46.

Take KQTIGNSCKACGYRGMLATHHKLC: the protein stability index stood at 2.85. As for KQTIGNSCKACGYRGMLLTHHKLC, the figure is 2.38; as for KQTIGNSCKACGYRGMLHTHHKLC, 3.07; as for KQTIGNSCKACGYRGMLQTHHKLC, 2.29. For KQTIGNSCKACGYRGMLSTHHKLC the value was 3.22; for KQTIGNSCKACGYRGMLPTHHKLC, 2.71; for KQTIGNSCKACGYRGMLDTHWKLC, 2.45. As for KQTIGNSCKACGYRGMLDTHAKLC, the figure is 2.7; as for KQTIGNSCKACGYRGMLDTHVKLC, 3.29; as for KQTIGNSCKACGYRGMLDTHTKLC, 3.17. In the case of KQTIGNSCKACGYRGMLDTHYKLC, the protein stability index worked out at 3.32.

For KQTIGNSCKACGYRGMLDTHIKLC, the protein stability index worked out at 2.88. For KQTIGNSCKACGYRGMLDTHKKLC the value was 3.02; for KQTIGNSCKACGYRGMLDTHFKLC, 2.35; for KQTIGNSCKACGYRGMLDTHDKLC, 3.75. As for KQTIGNSCKACGYRGMLDCHHKLC, the figure is 3.45; as for KQTIGNSCKACGYRGMLDQHHKLC, 3.03. As for KQTIGNSCKACGYRGMLDKHHKLC, the figure is 3.44; as for KQTIGNSCKACGYRGMLDIHHKLC, 2.68; as for KQTIGNSCKACGYRGMLDRHHKLC, 2.79. With KQTIGNSCKACGYRGMLDYHHKLC, the protein stability index stood at 2.71.

On to AQTIGNSCKACGYRGMLDTHHKLC, for which the protein stability index is 2.98. For PQTIGNSCKACGYRGMLDTHHKLC the value was 3.6. Take RQTIGNSCKACGYRGMLDTHHKLC: the protein stability index turned out to be 3.18. For SQTIGNSCKACGYRGMLDTHHKLC the value was 3.31. As for DQTIGNSCKACGYRGMLDTHHKLC, the figure is 3.88; as for YQTIGNSCKACGYRGMLDTHHKLC, 2.55. For EQTIGNSCKACGYRGMLDTHHKLC the value was 2.95; for IQTIGNSCKACGYRGMLDTHHKLC, 2.04; for KQTIGNSCKWCGYRGMLDTHHKLC, 3.01.

KQTIGNSCKNCGYRGMLDTHHKLC: the protein stability index was found to be 2.85.

In the case of KQTIGNSCKYCGYRGMLDTHHKLC, the protein stability index was 4.03. For KQTIGNSCKGCGYRGMLDTHHKLC the value was 2.71. Turning to KQTIGNSCKDCGYRGMLDTHHKLC, the protein stability index was 3.68. As to KQTIGNSCKCCGYRGMLDTHHKLC, the protein stability index was determined as 3.09. Consider KQTIGNSCKQCGYRGMLDTHHKLC, for which the protein stability index was determined as 3. For KQTIGNSCKFCGYRGMLDTHHKLC the value was 4.01; for KQTIGNSCKHCGYRGMLDTHHKLC, 4.19. For KQTIGNSCKSCGYRGMLDTHHKLC the value was 3.44; for KQTIGNSCKAEGYRGMLDTHHKLC, 1.55; for KQTIGNSCKAHGYRGMLDTHHKLC, 1.53.

With KQTIGNSCKASGYRGMLDTHHKLC, the protein stability index was 1.9. As for KQTIGNSCKAIGYRGMLDTHHKLC, the figure is 1.52; as for KQTIGNSCKARGYRGMLDTHHKLC, 1.61; as for KQTIGNSCKAVGYRGMLDTHHKLC, 2.88. KQTIGNSCKAWGYRGMLDTHHKLC: the protein stability index worked out at 2.06. For KQTIINSCKACGYRGMLDTHHKLC the value was 3.12; for KQTIYNSCKACGYRGMLDTHHKLC, 2.81. On to KQTIDNSCKACGYRGMLDTHHKLC, for which the protein stability index amounted to 3.53. For KQTILNSCKACGYRGMLDTHHKLC, the protein stability index worked out at 2.37. As for KQTITNSCKACGYRGMLDTHHKLC, the figure is 2.99; as for KQTINNSCKACGYRGMLDTHHKLC, 3.44. For the variant KQTIPNSCKACGYRGMLDTHHKLC, the protein stability index was 3.41. As for KQTIANSCKACGYRGMLDTHHKLC, the figure is 3.23.

In the case of KQTVGNSCKACGYRGMLDTHHKLC, the protein stability index amounted to 3.57.

Consider KQTEGNSCKACGYRGMLDTHHKLC, for which the protein stability index was 3.92. Consider KQTNGNSCKACGYRGMLDTHHKLC, for which the protein stability index stood at 3.63. As to KQTDGNSCKACGYRGMLDTHHKLC, the protein stability index turned out to be 3.95. Turning to KQTQGNSCKACGYRGMLDTHHKLC, the protein stability index came out at 4.17. For KQTTGNSCKACGYRGMLDTHHKLC the value was 3.29; for KQTGGNSCKACGYRGMLDTHHKLC, 3.56; for KQTCGNSCKACGYRGMLDTHHKLC, 3.24.

With KQTHGNSCKACGYRGMLDTHHKLC, the protein stability index turned out to be 3.39. As to KQTKGNSCKACGYRGMLDTHHKLC, the protein stability index was determined as 3.41.
